Experimental data published in patent US20200199559A1.
Read-outs that look alike come from different tables or passages of the source.

T1: wild type Penicillium oxalicum glucoamylase
T1 sequence: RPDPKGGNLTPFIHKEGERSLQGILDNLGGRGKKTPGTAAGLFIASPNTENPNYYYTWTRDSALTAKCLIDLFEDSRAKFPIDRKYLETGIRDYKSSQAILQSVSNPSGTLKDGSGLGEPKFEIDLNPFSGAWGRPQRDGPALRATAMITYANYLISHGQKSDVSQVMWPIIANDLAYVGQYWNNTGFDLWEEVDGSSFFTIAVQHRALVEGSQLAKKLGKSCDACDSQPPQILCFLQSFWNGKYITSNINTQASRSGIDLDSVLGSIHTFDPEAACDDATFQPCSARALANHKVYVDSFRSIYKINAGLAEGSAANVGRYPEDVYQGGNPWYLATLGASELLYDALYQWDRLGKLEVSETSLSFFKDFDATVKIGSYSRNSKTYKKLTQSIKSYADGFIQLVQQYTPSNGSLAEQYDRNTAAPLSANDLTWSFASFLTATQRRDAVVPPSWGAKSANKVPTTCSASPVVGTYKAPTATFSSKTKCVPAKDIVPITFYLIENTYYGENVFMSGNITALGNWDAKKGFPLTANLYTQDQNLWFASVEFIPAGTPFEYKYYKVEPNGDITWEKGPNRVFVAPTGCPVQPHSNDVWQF

T2: wild type Penicillium oxalicum glucoamylase
T2 chain: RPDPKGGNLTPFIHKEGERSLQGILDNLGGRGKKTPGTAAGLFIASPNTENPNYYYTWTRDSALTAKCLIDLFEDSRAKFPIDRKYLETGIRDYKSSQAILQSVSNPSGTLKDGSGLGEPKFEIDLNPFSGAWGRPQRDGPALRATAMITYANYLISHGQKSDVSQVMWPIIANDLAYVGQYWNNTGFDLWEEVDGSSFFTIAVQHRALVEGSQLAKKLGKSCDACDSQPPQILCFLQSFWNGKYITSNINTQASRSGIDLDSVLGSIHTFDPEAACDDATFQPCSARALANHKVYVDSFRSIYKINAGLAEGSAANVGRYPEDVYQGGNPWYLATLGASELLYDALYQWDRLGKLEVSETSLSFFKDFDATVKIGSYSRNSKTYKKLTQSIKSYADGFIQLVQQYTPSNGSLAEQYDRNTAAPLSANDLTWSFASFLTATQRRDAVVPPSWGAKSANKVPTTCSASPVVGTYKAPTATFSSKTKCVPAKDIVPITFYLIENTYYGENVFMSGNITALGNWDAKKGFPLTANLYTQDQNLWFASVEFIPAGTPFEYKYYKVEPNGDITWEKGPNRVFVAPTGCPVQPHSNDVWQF


Key:
[1] = tested on: T1, wild type Penicillium oxalicum glucoamylase
[2] = molecular target: Glucoamylase PE001: variant of the Penicillium oxalicum glucoamylase having a K79V substitution (Penicillium oxalicum); assay: cell-based or functional assay
[3] = molecular target: wild type Penicillium oxalicum glucoamylase (Penicillium oxalicum); assay: cell-based or functional assay
[4] = molecular target: T2, wild type Penicillium oxalicum …

intact glucoamylase (ca. 70 kDa), SDS-PAGE after protease treatment overnight at 4° C. [2] [%] | intact glucoamylase (ca. 70 kDa), SDS-PAGE after protease treatment overnight at 32° C. [2] [%] | intact glucoamylase (ca. 70 kDa), SDS-PAGE after protease treatment overnight at 4° C. [3] [%] | intact glucoamylase (ca. 70 kDa), SDS-PAGE after protease treatment overnight at 32° C. [3] [%] | Molecule | cleaved glucoamylase (ca. 60 kDa), SDS-PAGE after protease treatment overnight at 32° C. [1] [%] | cleaved glucoamylase (ca. 60 kDa), SDS-PAGE after protease treatment overnight at 4° C. [4] [%] | cleaved glucoamylase (ca. 60 kDa), SDS-PAGE after protease treatment overnight at 32° C. [4] [%]
 |  |  |  | aspergillopepsin I | 10 |  | 
100 | 100 | 100 | 90 | aspergillopepsin I (enzyme) |  |  | 
100 | 100 | 40 | 10 | aorsin (protein) GLNVTNCDQLITPECIRALYKIPSARAAPHPNNSLGIFEEGDYYAQEDLDLFFKTFAKDIPQGTHPIPAFIDGAEAPVPVTKAGGESDLDFELAYPIVHPQSITLYQTDDANWASNTTGFLNTFLDALDGSYCTYCAYGECGNDPSLDPVYPDDAGYDGQLMCGVFKPTNVISVSYGEQENDLPANYQQRQCMEFLKLGLQGVSVLFASGDNGVAGPPGDGNSVNGCLNNGTVFSPAFPNSCPYITNVGATKVYPGYTVSQPESAVYDPDGLYSYASGGGFSNIYPIPDYQAEAVATYFKDHNPPYPYYEGAENLGKNGGLYNRLGRGYPDVAANGDNIAVFNGGEFGSSGGTSASTPIFASIINRIIDERLAVGKGPVGFINPVLYKNPSVLNDITNGTNPGCGTDGFSTAPGWDPATGLGTPNYPKMLKLWLDLP |  | 60 | 90
